How the values were obtained:
[1] = target: the molecule itself; experiment: native gel or EMSA; clear native PAGE (6% or 8% Tris-glycine, 4 °C) of 30 μg mitochondrial extract, immunoblot with anti-TRAP1; cells also treated with hypoxia, oligomycin, rotenone, antimycin A or LDHi, or grown on different carbon sources
[2] = target: the molecule itself; experiment: affinity purification with mass spectrometry + native gel or EMSA; glutathione bead pull-down of TRAP1-GST from 1 mg mitochondrial lysate of transfected HEK293T cells, elution with 80 mM glutathione, 6% clear native gel, the stained complex band excised and analysed by LC/MS/MS; cutoff 11 unique peptides, GST alone as control
[3] = target: the molecule itself; experiment: native gel or EMSA; blue native PAGE (3-12%) of purified recombinant TRAP1 (20 and 5 ng), immunoblot with anti-TRAP1

B1: endogenous TRAP1 (natural protein, human (endogenous in HEK293T), UniProt Q12931 60-704, looked up)
chain: STQTAEDKEEPLHSIISSTESVQGSTSKHEFQAETKKLLDIVARSLYSEKEVFIRELISNASDALEKLRHKLVSDGQALPEMEIHLQTNAEKGTITIQDTGIGMTQEELVSNLGTIARSGSKAFLDALQNQAEASSKIIGQFGVGFYSAFMVADRVEVYSRSAAPGSLGYQWLSDGSGVFEIAEASGVRTGTKIIIHLKSDCKEFSSEARVRDVVTKYSNFVSFPLYLNGRRMNTLQAIWMMDPKDVREWQHEEFYRYVAQAHDKPRYTLHYKTDAPLNIRSIFYVPDMKPSMFDVSRELGSSVALYSRKVLIQTKATDILPKWLRFIRGVVDSEDIPLNLSRELLQESALIRKLRDVLQQRLIKFFIDQSKKDAEKYAKFFEDYGLFMREGIVTATEQEVKEDIAKLLRYESSALPSGQLTSLSEYASRMRAGTRNIYYLCAPNRHLAEHSPYYEAMKKKDTEVLFCFEQFDELTLLHLREFDKKKLISVETDIVVDHYKEEKFEDRSPAAECLSEKETEELMAWMRNVLGSRVTNVKVTLRLDTHPAMVTVLEMGAARHFLRMQQLAKTQEERAQLLQPTLEINPRHALIKKLNQLRASEPGLAQLLVDQIYENAMIAAGLVDDPRAMVGRLNELLVKALERH
notes: also called endogenous mitochondrial TRAP1; wild-type (WT) endogenous TRAP1; source: endogenous, mitochondrial extracts of HEK293T cells (also MCF-7, MDA-MB-134, PC3 and HCT116 cells)
- stoichiometry N [1]: 4

B2: TRAP1-GST fusion protein (natural protein, human, UniProt Q12931 60-704, looked up)
chain: B1 chain
notes: TRAP1, human; the MTS is cleaved off upon import; Called one of the 'full-length TRAP1 proteins with different tags'; source: HEK293T, transfected, pulled down from mitochondrial lysate on glutathione beads and eluted with glutathione; not shown: GST, C-terminal, kept
- stoichiometry N [2]: 4

B3: recombinant human TRAP1 (natural protein, UniProt Q12931 60-704, looked up)
chain: B1 chain
notes: TRAP1, human, recombinant; probably without the MTS (surmise); Same material used for blue native PAGE and cryo-EM; also called purified recombinant TRAP1
- stoichiometry N [3]: 4
